# T1: human VPAC2 receptor (human, UniProt P41587 24-438)
# T1 sequence (looked up): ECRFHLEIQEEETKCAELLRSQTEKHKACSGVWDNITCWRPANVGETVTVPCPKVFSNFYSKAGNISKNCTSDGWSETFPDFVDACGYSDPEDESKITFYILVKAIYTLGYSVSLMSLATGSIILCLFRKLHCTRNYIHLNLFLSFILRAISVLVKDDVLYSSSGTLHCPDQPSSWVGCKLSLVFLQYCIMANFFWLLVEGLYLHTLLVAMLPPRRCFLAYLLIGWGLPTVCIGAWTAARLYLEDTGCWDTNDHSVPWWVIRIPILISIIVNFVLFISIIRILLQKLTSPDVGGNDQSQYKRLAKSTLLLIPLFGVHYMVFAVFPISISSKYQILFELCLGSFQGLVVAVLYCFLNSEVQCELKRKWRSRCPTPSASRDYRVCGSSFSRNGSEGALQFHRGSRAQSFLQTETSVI
# T2: rat VPAC1 receptor (rat, UniProt P30083 31-459)
# T2 sequence (looked up): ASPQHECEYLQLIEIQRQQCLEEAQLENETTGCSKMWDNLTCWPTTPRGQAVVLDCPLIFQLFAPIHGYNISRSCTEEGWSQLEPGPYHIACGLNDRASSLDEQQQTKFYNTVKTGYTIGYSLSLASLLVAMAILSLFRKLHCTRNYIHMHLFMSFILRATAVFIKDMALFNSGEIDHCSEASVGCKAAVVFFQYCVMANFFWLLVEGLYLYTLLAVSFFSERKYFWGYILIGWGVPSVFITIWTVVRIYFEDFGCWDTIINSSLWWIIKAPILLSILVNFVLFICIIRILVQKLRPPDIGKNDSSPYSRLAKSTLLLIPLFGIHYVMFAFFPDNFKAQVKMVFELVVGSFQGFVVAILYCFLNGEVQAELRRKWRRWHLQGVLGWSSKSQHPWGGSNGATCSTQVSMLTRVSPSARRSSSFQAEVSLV
# T3: rat VPAC2 receptor (rat, UniProt P35000 23-437)
# T3 sequence (looked up): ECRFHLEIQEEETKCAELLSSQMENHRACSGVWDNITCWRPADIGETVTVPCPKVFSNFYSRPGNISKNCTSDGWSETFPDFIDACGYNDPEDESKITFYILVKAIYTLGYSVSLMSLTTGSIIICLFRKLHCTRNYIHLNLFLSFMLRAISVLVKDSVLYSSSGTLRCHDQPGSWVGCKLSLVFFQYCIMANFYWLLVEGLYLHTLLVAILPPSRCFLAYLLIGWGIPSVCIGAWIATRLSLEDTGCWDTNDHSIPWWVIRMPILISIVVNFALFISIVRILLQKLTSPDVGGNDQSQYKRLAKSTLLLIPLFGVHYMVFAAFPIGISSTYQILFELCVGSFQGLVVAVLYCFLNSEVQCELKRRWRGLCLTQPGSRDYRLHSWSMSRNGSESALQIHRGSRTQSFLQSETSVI
# Key:
# human VPAC2 receptor [1] = biological target: T1, human VPAC2 receptor; assay: cell-based or functional assay
# human VPAC2 receptor [2] = biological target: T1, human VPAC2 receptor; assay: filter binding, VPAC2 cell membranes, displacement of 125I-VIP
# Method: Binding assays: Membrane prepared from a stable VPAC2 cell line (see Example 3) or from cells transiently transfected with human VPAC1 or PAC1 are used.
# The assay plate is filled with 25 μL assay buffer, 25 μL membranes (2.5 μg) suspended in assay buffer, 25 μL agonist in assay buffer, and 25 μL tracer (about 40000 cpm) in assay buffer. The filled plate is incubated for 1 hour with shaking.
# The transfer from assay plate to filter plate is conducted. The blocking buffer is aspirated by vacuum filtration and washed two times with flush buffer. 90 μL is transferred from the assay plate to the filter plate. The 90 μL transferred from assay plate is aspirated and washed three times with 200 μL flush buffer. The plastic support is removed. It is dried for 1 hour at 60° C. 30 μL Microscint is added. The count is performed.
# rat VPAC1 receptor = biological target: T2, rat VPAC1 receptor; assay: cell-based or functional assay
# rat VPAC2 receptor = biological target: T3, rat VPAC2 receptor; assay: cell-based or functional assay
Binder,Human VPAC2 Receptor: Alphascreen (EC50; nM) (human VPAC2 receptor [1]) [nM],IC50 (human VPAC2 receptor [2]) [nM],Rat VPAC1 Receptor: DiscoveRx: (EC50; nM) (rat VPAC1 receptor) [nM],Rat VPAC2 Receptor: DiscoveRx: (EC50; nM) (rat VPAC2 receptor) [nM],Human VPAC2 Receptor: DiscoveRx (EC50; nM) (human VPAC2 receptor [1]) [nM]
HSDAVFTEQYTXLRXQLAAXXYXQSIXXGGPSSGAPPPCC (C6-HSDAVFTEQY(OMe)TOrnLRAibQLAAAibOrnYAibQSIOrnOrnGGPSSGAPPPC(PEG20K)C(PEG20K)-NH2) [P513],28.9,50.5,–,–,–
HSDAVFTEQYTXLRXQLAAXXYXQXIXXGGPSSGAPPPCC (C6-HSDAVFTEQY(OMe)TOrnLRAibQLAAAibOrnYAibQAibIOrnOrnGGPSSGAPPPC(PEG20K)C(PEG20K)-NH2) [P519],30.3,51.6,–,–,–
HSDAVFTEQYTXXRXQVAAXXYLQSIXXGGPSSGAPPPS (C6-HSDAVFTEQY(OMe)TOrnK(CO(CH2)2SPEG20K)RAibQVAAAibOrnYLQSIOrnOrnGGPSSGAPPPS-NH2) [P470],83.3,263,> 1000,111,–
HSDAVFTEQYTXLRXQVAAXXYLQSXXXGGPSSGAPPPC (C6-HSDAVFTEQY(OMe)TOrnLRAibQVAAAibOrnYLQSK(CO(CH2)2SPEG20K)OrnOrnGGPSSGAPPPC(PEG20K)-NH2) [P497],176,146,> 1000,345,–
HSDAVFTEQYTXLRXQXAAXXYLQSIXXGGPSSGAPPPS (C6-HSDAVFTEQY(OMe)TOrnLRAibQK(WPEG40K)AAAibOrnYLQSIOrnOrnGGPSSGAPPPS-NH2) [P533],2380,–,–,–,–
HSDAVFTEQYTXLRXQVAAXXYLQXIXXGGPSSGAPPPC (C6-HSDAVFTEQY(OMe)TOrnLRAibQVAAAibOrnYLQK(CO(CH2)2SPEG20K)IOrnOrnGGPSSGAPPPC(PEG20K)-NH2) [P495],117,142,–,–,–
HSDAVFTEQYTXLRXQVAAXXYLQSIXXGGPSSGAPPPS (C6-HSDAVFTEQY(OMe)TOrnLRAibQVAAAibK(W-PEG40K)YLQSIOrnOrnGGPSSGAPPPS-NH2) [P410],129,264,> 1000,318,–
HSDAVFTEQYTXLRXQVAXXXYLQSIXXGGPSSGAPPPC (C6-HSDAVFTEQY(OMe)TOrnLRAibQVAK(CO(CH2)2SPEG20K)AibOrnYLQSIOrnOrnGGPSSGAPPPC(PEG20K)-NH2) [P492],510,156,> 4000,963,–
HSDAVFTEQYTXLRXQVAAXXYLQSXXXGGPSSGAPPPS (C6-HSDAVFTEQY(OMe)TOrnLRAibQVAAAibOrnYLQSK(WPEG40K)OrnOrnGGPSSGAPPPS-NH2) [P535],98.4,145,> 1000,318,–
HSDAVFTEQYTXLRXQVAAXXYLCSIXXGGPSSGAPPPC (C6-HSDAVFTEQY(OMe)TOrnLRAibQVAAAibOrnYLC(PEG20K)SIOrnOrnGGPSSGAPPPC(PEG20K)-NH2) [P501],131,111,> 1000,272,–
HSDAVFTEQYTXLRXQVAAXXYLQSCXXGGPSSGAPPPC (C6-HSDAVFTEQY(OMe)TOrnLRAibQVAAAibOrnYLQSC(PEG20K)OrnOrnGGPSSGAPPPC(PEG20K)-NH2) [P503],147,41.5,> 4000,520,–
HSDAVFTEQYTXLRXQVCAXXYLQSIXXGGPSSGAPPPS (C6-HSDAVFTEQY(OMe)TOrnLRAibQVC(PEG40K)AAibOrnYLQSIOrnOrnGGPSSGAPPPS-NH2) [P478],49.9,30,2050,120,–
HSDAVFTEQYTXLRXQLAXXXYLQSCXXGGPSSGAPPPS (C6-HSDAVFTEQY(OMe)TOrnLRAibQLAAbuAibOrnYLQSC(PEG40K)OrnOrnGGPSSGAPPPS-NH2) [P543],84.2,56.3,355,101,8.9
HSDAVFTEQYTXLRXQVAAXXYLQSIXXXGGPSSGAPPPS (not fully specified; C6-HSDAVFTEQY(OMe)TOrnLRAibQVAAAibOrnYLQSIOrnK(WPEG40K)OrnGGPSSGAPPPS-NH2) [P454],59.9,36.6,1230,79.6,–
HSDAVFTEQYTXLRXQVAAXXYLQSIXXXGGPSSGAPPPC (C6-HSDAVFTEQY(OMe)TOrnLRAibQVAAAibOrnYLQSIOrnK(CO(CH2)2SPEG20K)OrnGGPSSGAPPPC(PEG20K)-NH2) [P499],57.7,34,804,68.2,–

# From patent publication US20080234198A1 (Eli Lilly, published 2008)
